{
  "source": "paper PMC7278498",
  "about": "“Crystal structures of the GH18 domain of the bifunctional peroxiredoxin–chitinase CotE from Clostridium difficile” (Acta Crystallographica. Section F, Structural Biology …, 2020)",
  "key": {"[1]": {"target": "the molecule itself", "assay": "crystal structure; hexagonal form, P6_(1)22, ∼2.1 Å; protein washed with 2 M guanidine hydrochloride on the Ni column (partially unfolded/refolded), tag then removed; 0.1 M sodium malonate pH 5.5, 13% PEG 3350, C8E5; dimer formed with a crystallographic symmetry mate"}, "[2]": {"target": "T1, pentapeptide Gly-Pro-Ala-Met-Lys (C. difficile)", "T1 construct": "residues 349 and 350 of CotE of Clostridium difficile; the side chain of residue 5 (Lys) is uncertain in the density; also called GPAMK; pentapeptide ligand; source: derived from the N-terminus of the E. coli-made CotE(349–712) after HRV 3C protease cleavage; co-purified and co-crystallised with the protein", "assay": "crystal structure; monoclinic form, P2_(1), 1.3 Å; 200 mM ammonium phosphate, 22.5% PEG 3350, 291 K; one protein molecule per asymmetric unit; peptide found in the active-site groove", "settings": "both partners purified"}},
  "data": [
    {"binder": "CotE(349–712), C-terminal fragment of CotE comprising the GH18 chitinase domain (domain or fragment, CotE spore coat protein (peroxiredoxin-chitinase) of Clostridium difficile, residues 349-712; In the monoclinic crystal the model holds Ile363-Phe712; In the hexagonal crystal the protein is a 3D domain-swapped dimer with an intermolecular Cys376-Cys670 disulfide; also called CotE chitinase domain; chitinase domain of CotE; source: E. coli BL21(DE3), purified (HisTrap, HRV 3C cleavage, second …)) GPAMKTLKDSKKLVRPQITDPYNPIVENANCPDINPIVAEYVLGNPTNVDAQLLDAVIFAFAEIDQSGNLFIPYPRFLNQLLALKGEKPSLKVIVAIGGWGAEGFSDAALTPTSRYNFARQVNQMINEYALDGIDIDWEYPGSSASGITSRPQDRENFTLLLTAIRDVIGDDKWLSVAGTGDRGYINSSAEIDKIAPIIDYFNLMSYDFTAGETGPNGRKHQANLFDSDLSLPGYSVDAMVRNLENAGMPSEKILLGIPFYGRLGATITRTYDELRRDYINKNGYEYRFDNTAQVPYLVKDGDFAMSYDDALSIFLKTQYVLRNCLGGVFSWTSTYDQANILARTMSIGINDPEVLKEELEGIYGQF", "values": [
      {"measurement": "stoichiometry N", "setting": "[1]", "value": 2},
      {"measurement": "binding result", "setting": "[2]", "value": "binds"}
    ]}
  ]
}
